The test system of series [1] is 2G12 (anti-HIV-1 gp120 carbohydrate-binding monoclonal antibody). Kind of series: BLI. The conditions noted are these: N are Man9-derivatized dU (3 sites); 5' A5 spacer [26,33,39]; 1:1 global fit; kon 2.04e4 /M/s, koff 2.53e-4 /s.
The test system is the same in series [2]. The experiment in a line: filter.

In the case of “AAAAACGGGTACGGGAGACCCACGGTGCAACCTACGGATAAAGCACACAGGAGACGACAAG [Clone 1 biotinylated glycoDNA (BLI)]”, the Kd in series [1] worked out at 12.4 nM.
As for “CGGGTACGGGAGACCCACAGTGCAACCTACGGATAAAGCACACAGGAGACGACAAG [Clone 2 glycoDNA]”, the Kd in series [2] (all T in random region are EdU-Man9 (3 sites), 20 mM Tris pH 7.5, 150 mM NaCl, 4 mM MgSO4, BSA, binding at 37 C also shown in FIG. 11) is 1.7 nM.
Consider “CGGGTACGGGAGACCCATGGTGCAACCTACGGATAAAGCACACAGGAGACGACAAG [Clone 7 glycoDNA]”, for which the equilibrium dissociation constant (Kd) in series [2] (all T in random region are EdU-Man9, moderate binding, Mg2+ buffer) was determined as 12 nM.

One may read the Kd as a measure of binding affinity in units of concentration. A low value points to tighter binding.

For the origin of these results see patent US11268099.
